The values that follow come from paper doi:10.1101/2021.01.04.425348.

Some results are limits rather than exact numbers.

Assay [1] deals with HSA 82-aa RNC with Cys34, Cys53, and Cys62 mutated to Ala (human). The assay is described as follows: high-speed atomic force microscopy.
The target in assay [2] is protein disulfide isomerase (PDI), wild type (human) (UniProt P07237). The experiment in a line: high-speed atomic force microscopy.

protein disulfide isomerase (PDI), wild type, sequence (P07237 18-508): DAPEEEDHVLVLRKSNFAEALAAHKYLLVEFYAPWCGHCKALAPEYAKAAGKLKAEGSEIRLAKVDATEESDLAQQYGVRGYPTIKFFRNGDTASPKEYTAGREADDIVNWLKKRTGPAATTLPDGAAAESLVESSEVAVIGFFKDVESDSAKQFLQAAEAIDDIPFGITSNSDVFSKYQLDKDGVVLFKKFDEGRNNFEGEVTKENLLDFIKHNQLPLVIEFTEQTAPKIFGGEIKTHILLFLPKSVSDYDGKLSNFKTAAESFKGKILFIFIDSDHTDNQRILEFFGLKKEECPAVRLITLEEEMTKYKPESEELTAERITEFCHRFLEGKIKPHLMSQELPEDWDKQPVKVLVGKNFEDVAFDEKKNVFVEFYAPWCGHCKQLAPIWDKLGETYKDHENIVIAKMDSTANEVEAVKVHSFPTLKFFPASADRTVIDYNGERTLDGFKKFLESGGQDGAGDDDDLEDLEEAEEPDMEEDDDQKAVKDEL
protein disulfide isomerase (PDI), wild type, P07237 18-508 (enzyme; other documents disagree on this pair), sequence (P07237 18-508): as above

In assay [1], “ER-resident protein 46 (ERp46), wild type (from UniProt Q8NBS9 33-432) (enzyme)” displayed an RNC binding time (8/59 molecules) of 60 s.

For “protein disulfide isomerase (PDI), wild type (from UniProt P07237 18-508) (enzyme)”, in assay [1], the RNC binding time (PDI homodimer, 17/19 molecules) is above 60 s and the RNC binding time (PDI monomer, 52/55 molecules) is below 10 s.

For “protein disulfide isomerase (PDI), wild type, P07237 18-508 (enzyme; other documents disagree on this pair)”, the stoichiometry N – broadly, a count of units in the complex or per binding partner – in assay [2] stood at 2.
